As a reminder, the Kd is the concentration at which binding is half-saturated.

In PMC10177328, “High Intrinsic Oncogenic Potential in the Myc-Box-Deficient Hydra Myc3 Protein” one finds Kd data, which are given here for one molecule.

The series has as its target T1, Hydra Myc3 bHLH-LZ (p13);Hydra Max bHLH-LZ (p13) (Hydra (strain  in the text …, UniProt A0A0H5FMB4;D0EM50 108-197;29-120, |)).
T1 sequence 1: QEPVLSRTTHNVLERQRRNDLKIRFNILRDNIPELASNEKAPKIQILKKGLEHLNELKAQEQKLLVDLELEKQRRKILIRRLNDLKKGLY
T1 sequence 2: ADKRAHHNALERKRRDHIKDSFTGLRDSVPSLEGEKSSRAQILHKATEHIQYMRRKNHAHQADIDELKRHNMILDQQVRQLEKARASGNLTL
As to the kind of experiment: EMSA; 0-2000 nM protein; EMSA: 10 mM Tris-HCl pH 7.5, 0.5 mM EDTA, 65 mM KCl, 5 mM MgCl2, 1 mM DTT, 100 ug/mL BSA, 10% glycerol, 25 C, 45 min; native 6% PAGE. The conditions noted are these: protein: recombinant;recombinant, tags: N-terminal initiator Met, C-terminal His6;N-terminal initiator Met, copies: 1;1, label: 32P, blunt.

B1: myc2 promoter E-box 18-mer (dsDNA)
DNA 1: ATAGCTCACGTGTCAATA
DNA 2: TATTGACACGTGAGCTAT
Consider B1, for which the Kd amounted to 16.3 nM.
